Laboratory results taken from article PMC12623338.

tested on: T1, CrsR (response regulator of CrsRK) (Actinosynnema pretiosum X47), ORF:a04a2703; test: EMSA; conditions: EMSA: 50-100 fmol probe, 0.5-1 ug CrsR, binding buffer with poly(dI-dC) (salt and pH not stated), 20 min at room temperature, 8% native PAGE; protein dialyzed …
T1 sequence: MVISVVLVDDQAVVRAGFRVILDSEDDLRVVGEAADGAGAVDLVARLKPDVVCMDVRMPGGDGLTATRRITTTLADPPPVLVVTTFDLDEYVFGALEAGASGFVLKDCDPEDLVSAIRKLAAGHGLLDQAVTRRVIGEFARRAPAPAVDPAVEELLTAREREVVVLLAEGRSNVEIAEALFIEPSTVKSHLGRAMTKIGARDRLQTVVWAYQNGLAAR

Sequence	binding
CGGACAGACCGATCCCCGAGTCGTGCGGGCCCGAGCCGTGGACGCGCGGGCCGTGGACGCGCGAGCCGCGACCGCCGCCCCCACGACCGCCGCCCCCACGACCGCCGCTCCGGCGACCACTGCTCCGGCGACCGCCGCTCCGGCGACCGCCGCTCCGGCGACCGCCGCTCCGGCGACCGCCGCCCCCACGACCACTCCTCCGCGCCCCCGCGTCCCCCAGGCCCCCGCGCCCCACCGGCACGTTCCGGGCGCGACCTACGACCGGGCCGTGCTGTTCGACCTCGACGGG (double strand) [asm45 promoter probe (asm45-47)]	binds
CCGGTTCCCGTTCATCCAATTGTGCGCACGACCGCGCCGCCGTGCCCGCGTGCTGCGGTGATGGCCTGGGAACAGGGGGGATTAGGGGGAGGTCAAGGGGGTTGGTCGGGATCTGCGGAATCGGTAGCGTCGAATTCCGAAAGCCGGCCGCGGTGAATTCCCCCGCGCCATTTCCGCGAACGACGGGACAGGGGCTCATGGGCA (double strand) [asm43 promoter probe (asm43-44)]	binds
GGAGGGACGAGCGGAGACCGGGTCGCGGGACTCCACTTCGGACGGTAGGGCACGCGGGCGCCGTTGGCAGTTGCCGCTTCCACGGCTGGCGAACAAAGCGGTAATCCCTTGCGCCACAGGCGATTGACACCCCGGCGAGGCCCTGGTTTCACTGCTGTCCGCACGTCACCGGCGCGAGGAGGCCCCCGTGAAGTACATGCTGCTCATCCAC (double strand) [asm21 promoter probe]	binds
TGACGGCGTCGGGTGAGGCCGCCGCTGGCCCTGGGACGGCGCTGCGCGCCCCCTCGGACCCACCGGAGCCGCCACCACCGCTTGTCCCCTTCCACCGGGTGGGGCGCGGTCGGTAATCCGGCGGCAATTCCTTCCCCCGTCCGGGCTAGCCAGGCCCGTGCGCCCGCGTCGCGCACGGGCCAAGGTGGGTGGCTGCGCGGATGACCGGGCCCCCGAACCGGATGTGGGAGAGATGCTGCGAAGCGAC (double strand) [asmA promoter probe]	no binding
ACTCGGTCGCCGTGGTCATGGCTACAGCCAACAACCTCGACCATGGTGGAGGTCAACAGTAAGGTTGAGCTGGTGAGCAAGTTGCCGGAGATGTTGACCATCGGCCAGGTCGCCGAGCGCAGCGGGGTGCCCCACACGGCGCTGCGGTTCTACGAGGAGCGCGGGCTGATCGCCTCGGAGCGCACGGCGGGCAACCAGCGCCGCTACCCCAGGCACGTGCTGCGCAGGCTCGCGTTCATCCGCACCGCGCAGCGGGTCGGGCTGAGCCTGGAGGAGGTGCG (double strand) [asm13 promoter probe (asm13-15, asm10-12)]	no binding
GGTCGGGCACCAGGAACACCTCGCAGAGCGCAAAGACGTGAGTGGACGGTGCGATTGTGCTGACGGCCTGACCCCGGTGGTGGGGACCGCGGCGAACCGGCTGAACGCAGGGGGGACCTAGGGGGGCGTCAGGGGGTTGGGGGGCTCTTCCGGCCGCCGTTAGCTTCGGGCCGCGCACCGGCCCCCGGAGAGCGCGCCGGACCGAGAGCAGAGACGAGGGCGACCGACCGTGCACCTGAAGGCCCCGCAGAAGCT (double strand) [asm24 promoter probe]	no binding
CGGTCCACCAGCCGCATCCCTCGCCTCCCCCGCGTCCGCCCCGCCGACCTTCAGGCATGTCAACAGCCCTGTCAGTCGTCTTGTCCACGCCCCGACCACCGCACCCCCACTGGCCGCCCACCCGCGCCGGGAAAACCACGAAGTCCCCTGCCGCGCGGGCGTCCCAGGTCGGACACTCCTGAGCGCACCCCCGCACCCGTTCCAGGAGGC (double strand) [asm7 promoter probe]	no binding
